Assay results: PMC6497050
Like-named read-outs stand apart in the source and are kept apart here.

Key:
importin α7 [1] = molecular target: importin α7 (UniProt O60684); assay: fluorescence polarisation
importin α7 [2] = molecular target: importin α7 (UniProt O60684); assay: fluorescence polarisation; remark: listed apart in the source

- Kd (importin α7 [1]): 30.4 µM
- Kd (importin α7 [2]): 1.3 µM
Substance: wild type LANS (Light Activated Nuclear Shuttle) (from UniProt O49003 404-546) (designed binder)
